Assay results from patent US20260001928A1 (CORTERIA PHARMACEUTICALS, priority 2022, published 2026).
*1 amine or outer side, *2 acyl side, *3 side chain or, on linkers, in order; H or OH if unused. Where no end group is shown, it is not given here. Side-chain parts run from the residue outwards. [ ]: non-standard residue; d: D form. The star is where a group is joined. C18 diacid = O=C(O)CCCCCCCCCCCCCCCCC(=O)*; C16 diacid = O=C(O)CCCCCCCCCCCCCCC(=O)*; γGlu = O=C(O)[C@H](CCC(=O)[*:2])N[*:1]; NMeI = CC[C@H](C)[C@H](NC)C(=O)O; Abu = CC[C@H](N)C(=O)O; Dap = NC[C@H](N)C(=O)O; AEEA = NCCOCCOCC(=O)O

T1: CRF1R receptor (UniProt P34998 24-415, limits assumed)
T1 sequence (looked up): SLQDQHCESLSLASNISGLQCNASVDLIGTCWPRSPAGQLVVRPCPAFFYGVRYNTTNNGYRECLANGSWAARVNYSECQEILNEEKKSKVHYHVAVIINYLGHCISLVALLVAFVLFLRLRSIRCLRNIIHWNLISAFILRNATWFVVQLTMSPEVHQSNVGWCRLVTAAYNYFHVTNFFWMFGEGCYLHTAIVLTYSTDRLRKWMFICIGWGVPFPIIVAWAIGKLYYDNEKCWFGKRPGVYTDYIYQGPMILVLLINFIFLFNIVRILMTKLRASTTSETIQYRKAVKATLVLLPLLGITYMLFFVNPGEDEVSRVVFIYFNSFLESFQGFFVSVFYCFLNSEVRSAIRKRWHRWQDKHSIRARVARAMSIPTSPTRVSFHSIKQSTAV


Experiments:
[1] = target: human corticotropin-releasing factor 2a (CRF2a receptor) (human), Q13324; experiment: cell-based or functional assay
CRF1R receptor = target: T1, CRF1R receptor; experiment: cell-based or functional assay

Chain of human corticotropin-releasing factor 2a (CRF2a receptor) (human), Q13324 (Q13324 20-411): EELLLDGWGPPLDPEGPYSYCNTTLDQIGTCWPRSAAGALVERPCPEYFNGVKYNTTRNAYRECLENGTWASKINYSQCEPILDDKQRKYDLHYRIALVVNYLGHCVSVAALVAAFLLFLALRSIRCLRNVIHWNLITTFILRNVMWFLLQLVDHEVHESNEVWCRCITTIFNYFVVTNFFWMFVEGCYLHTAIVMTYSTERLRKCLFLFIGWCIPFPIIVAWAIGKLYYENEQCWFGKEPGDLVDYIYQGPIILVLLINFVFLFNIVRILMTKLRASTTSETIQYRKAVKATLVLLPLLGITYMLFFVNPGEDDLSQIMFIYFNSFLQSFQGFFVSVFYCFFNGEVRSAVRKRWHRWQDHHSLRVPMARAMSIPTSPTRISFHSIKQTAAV

| EC50 [nM] (cAMP) [1] | Emax (% I) (CRF1R receptor) [%] | Binder |
| --- | --- | --- |
| 0.08 | 4 | Ac-IVLSLD[dV]PIKLK([γGlu-C18 diacid])KILLEQEKQKKQREQAETNEQILAQV-NH2 (SMILES CC[C@H](C)[C@H](NC(C)=O)C(=O)N[C@H](C(=O)N[C@@H](CC(C)C)C(=O)N[C@@H](CO)C(=O)N[C@@H](CC(C)C)C(=O)N[C@@H](CC(=O)O)C(=O)N[C@@H](C(=O)N1CCC[C@H]1C(=O)N[C@H](C(=O)N[C@@H](CCCCN)C(=O)N[C@@H](CC(C)C)C(=O)N[C@@H](CCCCNC(=O)CC[C@H](NC(=O)CCCCCCCCCCCCCCCCC(=O)O)C(=O)O)C(=O)N[C@@H](CCCCN)C(=O)N[C@H](C(=O)N[C@@H](CC(C)C)C(=O)N[C@@H](CC(C)C)C(=O)N[C@@H](CCC(=O)O)C(=O)N[C@@H](CCC(N)=O)C(=O)N[C@@H](CCC(=O)O)C(=O)N[C@@H](CCCCN)C(=O)N[C@@H](CCC(N)=O)C(=O)N[C@@H](CCCCN)C(=O)N[C@@H](CCCCN)C(=O)N[C@@H](CCC(N)=O)C(=O)N[C@@H](CCCNC(=N)N)C(=O)N[C@@H](CCC(=O)O)C(=O)N[C@@H](CCC(N)=O)C(=O)N[C@@H](C)C(=O)N[C@@H](CCC(=O)O)C(=O)N[C@H](C(=O)N[C@@H](CC(N)=O)C(=O)N[C@@H](CCC(=O)O)C(=O)N[C@@H](CCC(N)=O)C(=O)N[C@H](C(=O)N[C@@H](CC(C)C)C(=O)N[C@@H](C)C(=O)N[C@@H](CCC(N)=O)C(=O)N[C@H](C(N)=O)C(C)C)[C@@H](C)CC)[C@@H](C)O)[C@@H](C)CC)[C@@H](C)CC)C(C)C)C(C)C) [SEQ ID NO 130] |
| 0.17 | 14 | [NMeI]VLSLD[dV]PIKLK([γGlu-C18 diacid])KILLEQEKQKKQREQAETN[Dap]QILAQV-NH2 (N-terminus assumed; SMILES CC[C@H](C)[C@H](NC)C(=O)N[C@H](C(=O)N[C@@H](CC(C)C)C(=O)N[C@@H](CO)C(=O)N[C@@H](CC(C)C)C(=O)N[C@@H](CC(=O)O)C(=O)N[C@@H](C(=O)N1CCC[C@H]1C(=O)N[C@H](C(=O)N[C@@H](CCCCN)C(=O)N[C@@H](CC(C)C)C(=O)N[C@@H](CCCCNC(=O)CC[C@H](NC(=O)CCCCCCCCCCCCCCCCC(=O)O)C(=O)O)C(=O)N[C@@H](CCCCN)C(=O)N[C@H](C(=O)N[C@@H](CC(C)C)C(=O)N[C@@H](CC(C)C)C(=O)N[C@@H](CCC(=O)O)C(=O)N[C@@H](CCC(N)=O)C(=O)N[C@@H](CCC(=O)O)C(=O)N[C@@H](CCCCN)C(=O)N[C@@H](CCC(N)=O)C(=O)N[C@@H](CCCCN)C(=O)N[C@@H](CCCCN)C(=O)N[C@@H](CCC(N)=O)C(=O)N[C@@H](CCCNC(=N)N)C(=O)N[C@@H](CCC(=O)O)C(=O)N[C@@H](CCC(N)=O)C(=O)N[C@@H](C)C(=O)N[C@@H](CCC(=O)O)C(=O)N[C@H](C(=O)N[C@@H](CC(N)=O)C(=O)N[C@@H](CN)C(=O)N[C@@H](CCC(N)=O)C(=O)N[C@H](C(=O)N[C@@H](CC(C)C)C(=O)N[C@@H](C)C(=O)N[C@@H](CCC(N)=O)C(=O)N[C@H](C(N)=O)C(C)C)[C@@H](C)CC)[C@@H](C)O)[C@@H](C)CC)[C@@H](C)CC)C(C)C)C(C)C) [SEQ ID NO 140] |

Second part, the binder before the results:

| Binder | EC50 [nM] (cAMP) [1] | Emax (% I) (CRF1R receptor) [%] |
| --- | --- | --- |
| [NMeI]VLSLD[dV]PIKLK([AEEA-AEEA-γGlu-C18 diacid])KILLEQEKQKKQREQAETN[Abu]QILAQV-NH2 (N-terminus assumed; SMILES CC[C@H](NC(=O)[C@H](CC(N)=O)NC(=O)[C@@H](NC(=O)[C@H](CCC(=O)O)NC(=O)[C@H](C)NC(=O)[C@H](CCC(N)=O)NC(=O)[C@H](CCC(=O)O)NC(=O)[C@H](CCCNC(=N)N)NC(=O)[C@H](CCC(N)=O)NC(=O)[C@H](CCCCN)NC(=O)[C@H](CCCCN)NC(=O)[C@H](CCC(N)=O)NC(=O)[C@H](CCCCN)NC(=O)[C@H](CCC(=O)O)NC(=O)[C@H](CCC(N)=O)NC(=O)[C@H](CCC(=O)O)NC(=O)[C@H](CC(C)C)NC(=O)[C@H](CC(C)C)NC(=O)[C@@H](NC(=O)[C@H](CCCCN)NC(=O)[C@H](CCCCNC(=O)COCCOCCNC(=O)COCCOCCNC(=O)CC[C@H](NC(=O)CCCCCCCCCCCCCCCCC(=O)O)C(=O)O)NC(=O)[C@H](CC(C)C)NC(=O)[C@H](CCCCN)NC(=O)[C@@H](NC(=O)[C@@H]1CCCN1C(=O)[C@H](NC(=O)[C@H](CC(=O)O)NC(=O)[C@H](CC(C)C)NC(=O)[C@H](CO)NC(=O)[C@H](CC(C)C)NC(=O)[C@@H](NC(=O)[C@@H](NC)[C@@H](C)CC)C(C)C)C(C)C)[C@@H](C)CC)[C@@H](C)CC)[C@@H](C)O)C(=O)N[C@@H](CCC(N)=O)C(=O)N[C@H](C(=O)N[C@@H](CC(C)C)C(=O)N[C@@H](C)C(=O)N[C@@H](CCC(N)=O)C(=O)N[C@H](C(N)=O)C(C)C)[C@@H](C)CC) [SEQ ID NO 114] | 0.18 | 6 |
| [NMeI]VLSLD[dV]PIKLK([AEEA-AEEA-γGlu-C18 diacid])KILLEQEKQKKQREQAETN[Dap]QILAQV-NH2 (N-terminus assumed; SMILES CC[C@H](C)[C@H](NC)C(=O)N[C@H](C(=O)N[C@@H](CC(C)C)C(=O)N[C@@H](CO)C(=O)N[C@@H](CC(C)C)C(=O)N[C@@H](CC(=O)O)C(=O)N[C@@H](C(=O)N1CCC[C@H]1C(=O)N[C@H](C(=O)N[C@@H](CCCCN)C(=O)N[C@@H](CC(C)C)C(=O)N[C@@H](CCCCNC(=O)COCCOCCNC(=O)COCCOCCNC(=O)CC[C@H](NC(=O)CCCCCCCCCCCCCCCCC(=O)O)C(=O)O)C(=O)N[C@@H](CCCCN)C(=O)N[C@H](C(=O)N[C@@H](CC(C)C)C(=O)N[C@@H](CC(C)C)C(=O)N[C@@H](CCC(=O)O)C(=O)N[C@@H](CCC(N)=O)C(=O)N[C@@H](CCC(=O)O)C(=O)N[C@@H](CCCCN)C(=O)N[C@@H](CCC(N)=O)C(=O)N[C@@H](CCCCN)C(=O)N[C@@H](CCCCN)C(=O)N[C@@H](CCC(N)=O)C(=O)N[C@@H](CCCNC(=N)N)C(=O)N[C@@H](CCC(=O)O)C(=O)N[C@@H](CCC(N)=O)C(=O)N[C@@H](C)C(=O)N[C@@H](CCC(=O)O)C(=O)N[C@H](C(=O)N[C@@H](CC(N)=O)C(=O)N[C@@H](CN)C(=O)N[C@@H](CCC(N)=O)C(=O)N[C@H](C(=O)N[C@@H](CC(C)C)C(=O)N[C@@H](C)C(=O)N[C@@H](CCC(N)=O)C(=O)N[C@H](C(N)=O)C(C)C)[C@@H](C)CC)[C@@H](C)O)[C@@H](C)CC)[C@@H](C)CC)C(C)C)C(C)C) [SEQ ID NO 115] | 0.76 | 4 |
| [NMeI]VLSLD[dV]PIKLK([γGlu-C16 diacid])KILLEQEKQKKQREQAETN[Dap]QILAQV-NH2 (N-terminus assumed; SMILES CC[C@H](C)[C@H](NC)C(=O)N[C@H](C(=O)N[C@@H](CC(C)C)C(=O)N[C@@H](CO)C(=O)N[C@@H](CC(C)C)C(=O)N[C@@H](CC(=O)O)C(=O)N[C@@H](C(=O)N1CCC[C@H]1C(=O)N[C@H](C(=O)N[C@@H](CCCCN)C(=O)N[C@@H](CC(C)C)C(=O)N[C@@H](CCCCNC(=O)CC[C@H](NC(=O)CCCCCCCCCCCCCCC(=O)O)C(=O)O)C(=O)N[C@@H](CCCCN)C(=O)N[C@H](C(=O)N[C@@H](CC(C)C)C(=O)N[C@@H](CC(C)C)C(=O)N[C@@H](CCC(=O)O)C(=O)N[C@@H](CCC(N)=O)C(=O)N[C@@H](CCC(=O)O)C(=O)N[C@@H](CCCCN)C(=O)N[C@@H](CCC(N)=O)C(=O)N[C@@H](CCCCN)C(=O)N[C@@H](CCCCN)C(=O)N[C@@H](CCC(N)=O)C(=O)N[C@@H](CCCNC(=N)N)C(=O)N[C@@H](CCC(=O)O)C(=O)N[C@@H](CCC(N)=O)C(=O)N[C@@H](C)C(=O)N[C@@H](CCC(=O)O)C(=O)N[C@H](C(=O)N[C@@H](CC(N)=O)C(=O)N[C@@H](CN)C(=O)N[C@@H](CCC(N)=O)C(=O)N[C@H](C(=O)N[C@@H](CC(C)C)C(=O)N[C@@H](C)C(=O)N[C@@H](CCC(N)=O)C(=O)N[C@H](C(N)=O)C(C)C)[C@@H](C)CC)[C@@H](C)O)[C@@H](C)CC)[C@@H](C)CC)C(C)C)C(C)C) [SEQ ID NO 70] | 0.17 | 0 |
| Ac-IVLSLD[dV]PIKLK([γGlu-C18 diacid])KILLEQEKQKKQREQAETN[Dap]QILAQV-NH2 (SMILES CC[C@H](C)[C@H](NC(C)=O)C(=O)N[C@H](C(=O)N[C@@H](CC(C)C)C(=O)N[C@@H](CO)C(=O)N[C@@H](CC(C)C)C(=O)N[C@@H](CC(=O)O)C(=O)N[C@@H](C(=O)N1CCC[C@H]1C(=O)N[C@H](C(=O)N[C@@H](CCCCN)C(=O)N[C@@H](CC(C)C)C(=O)N[C@@H](CCCCNC(=O)CC[C@H](NC(=O)CCCCCCCCCCCCCCCCC(=O)O)C(=O)O)C(=O)N[C@@H](CCCCN)C(=O)N[C@H](C(=O)N[C@@H](CC(C)C)C(=O)N[C@@H](CC(C)C)C(=O)N[C@@H](CCC(=O)O)C(=O)N[C@@H](CCC(N)=O)C(=O)N[C@@H](CCC(=O)O)C(=O)N[C@@H](CCCCN)C(=O)N[C@@H](CCC(N)=O)C(=O)N[C@@H](CCCCN)C(=O)N[C@@H](CCCCN)C(=O)N[C@@H](CCC(N)=O)C(=O)N[C@@H](CCCNC(=N)N)C(=O)N[C@@H](CCC(=O)O)C(=O)N[C@@H](CCC(N)=O)C(=O)N[C@@H](C)C(=O)N[C@@H](CCC(=O)O)C(=O)N[C@H](C(=O)N[C@@H](CC(N)=O)C(=O)N[C@@H](CN)C(=O)N[C@@H](CCC(N)=O)C(=O)N[C@H](C(=O)N[C@@H](CC(C)C)C(=O)N[C@@H](C)C(=O)N[C@@H](CCC(N)=O)C(=O)N[C@H](C(N)=O)C(C)C)[C@@H](C)CC)[C@@H](C)O)[C@@H](C)CC)[C@@H](C)CC)C(C)C)C(C)C) [SEQ ID NO 128] | 0.17 | 10 |
